Data published in the supplement of paper PMC6757056.
± gives the standard deviation of the averaged measurements.

B1: library; a variant is named by its letters at N, in order (parent)
chain: GCUGUCACCGGUGCUUGGUACGUUAUAUUCAGCCGGUCUGAUGAGUCUNNNNNNAGACGAAACAGC

Tests used:
(6R,S)-folinic acid [1] = variants of: B1; test: FACS-Seq fitted mean relative fluorescence mCherry/BFP without ligand (log10 relative fluorescence); HEK293T overexpressing SLC46A1; higher = higher reporter protein expression; settings: without (6R,S)-folinic acid; ligand present: no
Procedure, shortened: (§1)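 The ribozyme switch sat in an mCherry reporter, delivered by lentivirus into HEK293T libraries along with an EF1α-BFP marker. Enriched cells were incubated 48 h with or without ligand, sorted into 6 bins by mCherry/BFP, and bin genomic DNA was PCR-amplified, barcoded and MiSeq-sequenced. Fluorescence equals the fitted normal mean of the bin counts after normalization. Those log10(mCherry/BFP) means were scaled to five spiked-in control ribozymes.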

(6R,S)-folinic acid [2] = variants of: B1; test: normalized RNA/DNA level without ligand (relative to sTRSVctl = 100) (log10 (% of sTRSVctl)); HEK293T overexpressing SLC46A1; higher = less ribozyme self-cleavage, higher mRNA level; settings: without (6R,S)-folinic acid; ligand present: no
Procedure, shortened: (§2)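 Only sequences with at least 100 DNA reads were analyzed, from HEK293T cells transfected with 4 µg per 6-well well of ribozyme switch library plasmids 72 h before RNA extraction with EDTA. Any ligand was added 1 h before transfection. RNA level was defined as RNA over DNA reads, normalized to a spiked-in non-cleaving sequence or to the top sequences, then scaled and log-transformed. The top set was 25 sequences, and the scaling was ×100 followed by log10.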

(6R,S)-folinic acid [3] = variants of: B1; test: FACS-Seq fitted mean relative fluorescence mCherry/BFP with ligand (log10 relative fluorescence); HEK293T overexpressing SLC46A1; ligand concentration (+) FACS-Seq: 6 mM; higher = higher reporter protein expression; settings: with (6R,S)-folinic acid; ligand present: yes
Procedure, shortened: as §1

(6R,S)-folinic acid [4] = variants of: B1; test: normalized RNA/DNA level with ligand (relative to sTRSVctl = 100) (log10 (% of sTRSVctl)); HEK293T overexpressing SLC46A1; ligand concentration (+) RNA-Seq: 6 mM; higher = less ribozyme self-cleavage, higher mRNA level; settings: with (6R,S)-folinic acid; ligand present: yes
Procedure, shortened: as §2

Variant	FACS-Seq fitted mean (log10) ((6R,S)-folinic acid [1])	normalized RNA/DNA level without ligand (log10) ((6R,S)-folinic acid [2])	FACS-Seq fitted mean (log10) ((6R,S)-folinic acid [3])	normalized RNA/DNA level with ligand (log10) ((6R,S)-folinic acid [4])
CAUUUU	0.383 ± 0.084	1.982 ± 0.015	0.284 ± 0.047	1.99 ± 0.043
UGGUAC	-0.0637 ± 0.16	1.994 ± 0.013	-0.0596 ± 0.18	1.99 ± 0.039
UGCUAG	0.312 ± 0.12	1.76 ± 0.028	0.441 ± 0.057	1.972 ± 0.014
UAACCG	0.215 ± 0.047	1.8952 ± 0.00059	0.522 ± 0.21	2.01 ± 0.028
UCGUAA	-0.407 ± 0.028	1.937 ± 0.0094	-0.393 ± 0.27	2.007 ± 0.0097
UGACCA	0.061 ± 0.12	2.042 ± 0.0098	-0.0235 ± 0.23	2.05 ± 0.039
GGCUUG	0.434 ± 0.019	2.078 ± 0.012	0.292 ± 0.34	2.049 ± 0.018
GUGUAC	-0.753 ± 0.24	1.942 ± 0.0035	-0.684 ± 0.34	2.005 ± 0.0037
AGAUGG	0.589 ± 0.0066	1.91 ± 0.0092	0.62 ± 0.25	2.02 ± 0.028
CCUACA	-0.221 ± 0.03	2.02 ± 0.044	-0.392 ± 0.29	2.04 ± 0.043
UGUAAU	0.41 ± 0.068	1.886 ± 0.0076	0.35 ± 0.072	1.994 ± 0.0024
GAGAAG	0.0112 ± 0.083	1.905 ± 0.0077	0.219 ± 0.32	2.02 ± 0.029
GUUCCA	0.262 ± 0.14	2.0222 ± 0.00044	0.191 ± 0.16	2.03 ± 0.054
ACUUAC	0.478 ± 0.045	2.009 ± 0.0089	0.5359 ± 0.00057	2.016 ± 0.014
UAUUUC	0.248 ± 0.026	2.029 ± 0.0031	0.208 ± 0.2	2.01 ± 0.054
CAGUAA	0.289 ± 0.13	1.955 ± 0.0021	0.23 ± 0.14	1.99 ± 0.023
AUGCAC	0.724 ± 0.038	2.001 ± 0.0052	0.703 ± 0.1	2.014 ± 0.01
AAUCCU	0.552 ± 0.046	2.051 ± 0.0088	0.476 ± 0.068	2.06 ± 0.019
UGCUCG	0.493 ± 0.023	1.84 ± 0.06	0.49 ± 0.049	1.96 ± 0.072
GACGAA	0.551 ± 0.09	1.963 ± 0.0039	0.69 ± 0.21	2 ± 0.04
AACGUU	0.445 ± 0.028	1.991 ± 0.012	0.286 ± 0.094	1.98 ± 0.038
UACCGA	0.3629 ± 0.0013	1.9669 ± 0.00083	0.4406 ± 0.0022	2.04 ± 0.048
UAGUGC	0.371 ± 0.0073	1.949 ± 0.011	0.493 ± 0.034	2 ± 0.051
AUCGCU	0.152 ± 0.036	2.026 ± 0.01	0.222 ± 0.45	2.013 ± 0.015

Variant	FACS-Seq fitted mean (log10) ((6R,S)-folinic acid [1])	normalized RNA/DNA level without ligand (log10) ((6R,S)-folinic acid [2])	FACS-Seq fitted mean (log10) ((6R,S)-folinic acid [3])	normalized RNA/DNA level with ligand (log10) ((6R,S)-folinic acid [4])
UUGUAU	-0.387 ± 0.048	1.99 ± 0.02	-0.176 ± 0.12	2.014 ± 0.0072
GUUUUA	0.327 ± 0.011	2 ± 0.0092	0.461 ± 0.024	2.02 ± 0.029
UAAUAU	0.201 ± 0.005	1.922 ± 0.0069	0.297 ± 0.077	1.99 ± 0.026
AUAACA	0.394 ± 0.16	2 ± 0.017	0.263 ± 0.35	1.98 ± 0.033
AGGCAA	0.293 ± 0.14	1.994 ± 0.016	0.205 ± 0.1	1.994 ± 0.019
AUUGGA	0.168 ± 0.094	1.941 ± 0.0048	0.119 ± 0.29	2.01 ± 0.038
GCUUCA	0.3988 ± 0.0025	2.04 ± 0.033	0.641 ± 0.1	2.06 ± 0.031
AAGAGA	0.0158 ± 0.096	1.929 ± 0.0075	0.157 ± 0.024	2.03 ± 0.049
AAGAGG	0.589 ± 0.041	1.843 ± 0.0052	0.632 ± 0.11	1.99 ± 0.021
UGAUGA	0.447 ± 0.11	1.865 ± 0.0033	0.525 ± 0.05	2.01 ± 0.047
GUGAAA	-0.0108 ± 0.075	1.956 ± 0.0062	0.313 ± 0.017	1.981 ± 0.016
AAAAGG	0.512 ± 0.12	1.875 ± 0.005	0.459 ± 0.17	1.98 ± 0.038
GGGAGU	0.46 ± 0.087	1.975 ± 0.0027	0.487 ± 0.054	2 ± 0.038
AACGCA	0.404 ± 0.048	2.001 ± 0.013	0.533 ± 0.023	2 ± 0.035
GUACUC	0.541 ± 0.13	2.051 ± 0.016	0.366 ± 0.17	2.041 ± 0.013
CCAGUG	0.445 ± 0.16	2.029 ± 0.0086	0.251 ± 0.16	2.022 ± 0.0066
AACGAG	0.367 ± 0.0092	1.82 ± 0.032	0.501 ± 0.065	1.984 ± 0.01
UAGAAG	0.056 ± 0.02	1.654 ± 0.0022	0.456 ± 0.0016	1.963 ± 0.019
CUAAAG	-0.0676 ± 0.063	1.913 ± 0.0067	-0.0285 ± 0.2	2 ± 0.035
AGACGC	0.389 ± 0.13	2.018 ± 0.016	0.336 ± 0.11	2.01 ± 0.042
UAGCCU	0.641 ± 0.044	2.02 ± 0.045	0.19 ± 0.0051	2.04 ± 0.037
AGCCUA	0.465 ± 0.015	2.021 ± 0.012	0.612 ± 0.31	2.01 ± 0.021
UGCGGG	-0.0146 ± 0.0024	1.788 ± 0.011	0.675 ± 0.21	1.99 ± 0.043
AGCUUG	0.529 ± 0.0056	1.964 ± 0.002	0.349 ± 0.32	2.03 ± 0.036

Variant	FACS-Seq fitted mean (log10) ((6R,S)-folinic acid [1])	normalized RNA/DNA level without ligand (log10) ((6R,S)-folinic acid [2])	FACS-Seq fitted mean (log10) ((6R,S)-folinic acid [3])	normalized RNA/DNA level with ligand (log10) ((6R,S)-folinic acid [4])
AAUACC	0.72 ± 0.071	2.028 ± 0.004	0.469 ± 0.062	2.03 ± 0.031
UAGUUG	0.194 ± 0.067	1.768 ± 0.016	0.229 ± 0.0032	1.96 ± 0.021
UACUUG	0.275 ± 0.057	1.78 ± 0.022	0.607 ± 0.16	1.98 ± 0.045
GGAGAU	0.0885 ± 0.2	1.959 ± 0.0067	-0.253 ± 0.085	1.99 ± 0.049
UUUGAA	0.0652 ± 0.029	1.918 ± 0.0086	0.135 ± 0.075	1.98 ± 0.042
GCAUGA	0.25 ± 0.038	2.0186 ± 0.00041	0.168 ± 0.097	2.081 ± 0.01
CCAGCC	0.159 ± 0.022	2.05 ± 0.025	-0.0156 ± 0.022	2.03 ± 0.039
GAGUAA	0.434 ± 0.18	1.9346 ± 0.0017	0.44 ± 0.3	1.99 ± 0.029
AGUGAU	0.213 ± 0.04	1.972 ± 0.016	0.178 ± 0.14	1.996 ± 0.0024
GGUAAU	0.342 ± 0.044	1.992 ± 0.015	0.504 ± 0.12	2.03 ± 0.043
AGUCGA	0.3437 ± 0.0018	1.974 ± 0.012	0.506 ± 0.09	2.021 ± 0.0067
GUUCUA	0.333 ± 0.067	2.03 ± 0.0066	0.412 ± 0.031	2.035 ± 0.0031
AGACCU	0.618 ± 0.15	2.02 ± 0.041	0.641 ± 0.01	2.05 ± 0.027
UUAAGG	0.0635 ± 0.0074	1.855 ± 0.0022	0.25 ± 0.22	1.98 ± 0.025
UUCACU	-0.112 ± 0.034	2.059 ± 0.0067	-0.112 ± 0.28	2.041 ± 0.02
UGCAGA	-0.262 ± 0.068	1.899 ± 0.008	-0.0873 ± 0.14	1.995 ± 0.0057
AAGGUA	0.34 ± 0.014	1.74 ± 0.024	0.228 ± 0.14	1.83 ± 0.025
CGAGAA	0.311 ± 0.059	1.9567 ± 0.0017	0.426 ± 0.19	2.01 ± 0.039
UCAACC	0.654 ± 0.28	2.04 ± 0.023	0.606 ± 0.39	1.978 ± 0.017
UGCUGG	0.145 ± 0.014	1.85 ± 0.025	0.325 ± 0.18	2.02 ± 0.065
AUAGGU	0.477 ± 0.19	1.87 ± 0.023	0.695 ± 0.3	2.01 ± 0.047
AUAGGG	-0.255 ± 0.066	1.599 ± 0.0044	0.286 ± 0.019	1.92 ± 0.025
AGUACG	0.0935 ± 0.062	1.935 ± 0.0077	-0.00576 ± 0.14	2.03 ± 0.045
UAUCAG	0.285 ± 0.25	1.84 ± 0.024	0.328 ± 0.29	1.95 ± 0.025
